Experimental data: patent US20250213707A1, “COMPOUND FOR INCREASING EFFICACY OF ONCOLYTIC VIRUSES” (ABLEVIA BIOTECH GMBH, priority 2022, published 2025)

How the values were obtained:
[1] = biological target: Polyclonal antibody ab6982 (Abcam); assay: cyclic peptide microarray, fiber peptides
[2] = biological target: Polyclonal antibody ab6982 (Abcam); assay: cyclic peptide microarray, hexon peptides

Substance | rank of binding signal [1] [rank] | rank of binding signal [2] [rank]
AHLIIRF (peptide) | 6 | –
ALEINLE (peptide) | – | 33
AQNQLNI (peptide) | 172 | –
ARPSEDT (peptide) | 41 | –
ATSSYTF (peptide) | 80 | –
AYSMSFS (peptide) | 167 | –
DDDNEDE (peptide) | – | 96
DDNEDEV (peptide) | – | 78
DEVDEQA (peptide) | – | 10
DIETPDT (peptide) | – | 62
DPEYWNE (peptide) | 53 | –
DRMYSFF (peptide) | – | 86
DTFNPVY (peptide) | 130 | –
EDDDNED (peptide) | – | 63
EDEVDEQ (peptide) | – | 126
EEDDDNE (peptide) | – | 108
EINLEEE (peptide) | – | 6
ETPDTHI (peptide) | – | 51
EVDEQAE (peptide) | – | 17
EYWNFRN (peptide) | 113 | –
FLDPEYW (peptide) | 50 | –

Substance | rank of binding signal [1] [rank] | rank of binding signal [2] [rank]
FSWDWSG (peptide) | 186 | –
FVSPNG (peptide) | 13 | –
GDRTRYF (peptide) | – | 80
GQGPLFI (peptide) | 58 | –
HLIIRFD (peptide) | 60 | –
HNLDINY (peptide) | 9 | –
IETPDTH (peptide) | – | 45
IFATSSY (peptide) | 104 | –
IGYQGFY (peptide) | – | 136
INLEEED (peptide) | – | 32
KDRMYSF (peptide) | – | 143
LEINLEE (peptide) | – | 4
LGQGPLF (peptide) | 27 | –
LGTGLSF (peptide) | 44 | –
LNLRLGQ (peptide) | 173 | –
LNNSFLD (peptide) | 180 | –
MSFSWDW (peptide) | 22 | –
NIGYQGF (peptide) | – | 187
NKGLYLF (peptide) | 20 | –
NLEEEDD (peptide) | – | 65
NQLNLRL (peptide) | 72 | –

Substance | rank of binding signal [1] [rank] | rank of binding signal [2] [rank]
NYINEIF (peptide) | 16 | –
PELTPPF (peptide) | 47 | –
PEYWNFR (peptide) | 31 | –
QGPLFIN (peptide) | 93 | –
QLNLRLG (peptide) | 136 | –
QNQLNLR (peptide) | 82 | –
QSAHLII (peptide) | 126 | –
RPSEDTF (peptide) | 24 | –
SAHLIIR (peptide) | 65 | –
SAYSMSF (peptide) | 108 | –
SFSWDWS (peptide) | 100 | –
SMSFSWD (peptide) | 144 | –
SSYTFSY (peptide) | 42 | –
SWDWSGH (peptide) | 193 | –
SYTFSYI (peptide) | 64 | –
TRYFSMW (peptide) | – | 73
VDEQAEQ (peptide) | – | 20
YINEIFA (peptide) | 168 | –
YSFFRNF (peptide) | – | 104
YSMSFSW (peptide) | 8 | –
YTESYIA (peptide) | 181 | –
